Key:
[1] = Toxicity as measured by weight loss / organ evaluation in tumor-bearing mice; assay type: in vivo
Experimental: METHOD: Drug Toxicity determinations. Persistent drug toxicity was assessed by collecting blood via cardiac puncture and submitting the serum for independent analysis of blood urea nitrogen (BUN), creatinine, total protein, AST-SGOT, ALT-SGPT plus a standard hematological cell panel at Ani-Lytics, Inc. (Gaithersburg, Md.). In addition, histopathologic evaluation of formalin-fixed heart, lungs, liver, spleen, kidney, intestine, skeletal muscle and bone (tibia/fibula) were conducted by board-certified pathologists at Animal Reference Pathology Laboratories (ARUP; Salt Lake City, Utah).
METHOD: Toxicity as Measured by Weight Loss.

[2] = Serum binding, human serum; assay type: in vitro ADME
Experimental: (§1) METHOD: Serum binding against different species. Compounds are tested with 30K NMWL, subjected to Microcon filtration (10,000 g for 30 minutes), and compounds are detected by HPLC.

[3] = Body weight change of Balb/c mice at doses above therapeutic doses (FIG. 14); details: intravenous, three times in one week (FIG. 14)
Experimental: METHOD: Toxicity as Measured by Weight Loss. The percentage weight change of the mice was determined in mice (5 mice/group) on selected days post-tumor inoculation (PTI), and graphed.
Each dose was administered three times, every other day, as indicated by the arrows. EC0305 was administered at (Δ) 2 μmol/kg TIW; (∇) 2.5 μmol/kg TIW; and (□) 3 μmol/kg.

[4] = Serum binding against different species; assay type: in vitro ADME; details: human, dog, Balb/c mouse, rat, rabbit, fetal calf serum
Experimental: as §1

Human serum stability = assay type: in vitro ADME
From the text: METHOD: Human serum stability.

s.c. tumors = experiment: Inhibition of tumor growth in mice (tumor model not stated, FIG. 9 and 11); assay type: in vivo; details: tolerable and highly toxic dose levels (0.1, 0.2, 0.5 μmol/kg TIW), dosing terminated early
Experimental: METHOD: Inhibition of Tumor Growth in Mice. Four to seven week-old mice (Balb/c or nu/nu strains) were purchased from Harlan Sprague Dawley, Inc. (Indianapolis, Ind.). Normal rodent chow contains a high concentration of folic acid (6 mg/kg chow); accordingly, mice used were maintained on the folate-free diet (Harlan diet #TD00434) for 1 week before tumor implantation to achieve serum folate concentrations close to the range of normal human serum. For tumor cell inoculation, 1×10^6 M109 cells (Balb/c strain) or 1×10^6 KB cells (nu/nu strain) in 100 μL were injected in the subcutis of the dorsal medial area. Tumors were measured in two perpendicular directions every 2-3 days using a caliper, and their volumes were calculated as 0.5×L×W^2, where L=measurement of longest axis in mm and W=measurement of axis perpendicular to L in mm. […] Dosing solutions were prepared fresh each day in PBS and administered through the lateral tail vein of the mice.

folate receptors (FRs) = target: T1, folate receptors (FRs) (Homo sapiens, UniProt P15328); experiment: Relative affinity assay (3H-folic acid displacement on KB cells); assay type: binding; details: 10% serum/FDRPMI; folic acid set to 1
T1 construct: FR-positive KB cells were heavily seeded into 24-well cell culture plates; endogenous in cells; host or cells: KB cells
T1 sequence (P15328 25-234): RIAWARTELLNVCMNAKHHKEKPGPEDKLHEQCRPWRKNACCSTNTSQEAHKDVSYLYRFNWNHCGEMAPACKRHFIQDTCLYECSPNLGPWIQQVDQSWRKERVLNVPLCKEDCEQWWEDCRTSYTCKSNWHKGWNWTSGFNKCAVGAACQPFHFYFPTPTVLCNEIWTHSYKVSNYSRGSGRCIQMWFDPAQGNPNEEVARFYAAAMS
Experimental: METHOD: Relative Affinity Assay. The affinity for folate receptors (FRs) relative to folate was determined according to a previously described method (Westerhof, G. R., J. H. Schornagel, et al. (1995) Mol. Pharm. 48: 459-471) with slight modification. Briefly, FR-positive KB cells were heavily seeded into 24-well cell culture plates and allowed to adhere to the plastic for 18 h. Spent incubation media was replaced in designated wells with folate-free RPMI (FFRPMI) supplemented with 100 nM ^3H-folic acid in the absence and presence of increasing concentrations of test article or folic acid. Cells were incubated for 60 min at 37° C. and then rinsed 3 times with PBS, pH 7.4. Five hundred microliters of 1% SDS in PBS, pH 7.4, were added per well. Cell lysates were then collected and added to individual vials containing 5 mL of scintillation cocktail, and then counted for radioactivity. Negative control tubes contained only the ^3H-folic acid in FFRPMI (no competitor). Positive control tubes contained a final concentration of 1 mM folic acid, and CPMs measured in these samples (representing non-specific binding of label) were subtracted from all samples.

CCCC(=O)OCN(C(=O)[C@@H](NC(=O)[C@H]1CCCCN1C)C(C)CC)[C@H](C[C@@H](OC(C)=O)c1nc(C(=O)N[C@@H](Cc2ccc(O)cc2)C[C@H](C)C(=O)NNC(=O)OCCSSC[C@H](NC(=O)[C@H](CC(=O)O)NC(=O)[C@H](CCCNC(=N)N)NC(=O)[C@H](CC(=O)O)NC(=O)CC[C@H](NC(=O)c2ccc(NCc3cnc4nc(N)[nH]c(=O)c4n3)cc2)C(=O)O)C(=O)O)cs1)C(C)C (stereo partly drawn) [EC0305]
weight loss or major organ tissue degeneration ([1]; Balb/c mice with M109 tumors (FIG. 8)): apparent absence of weight loss or major organ tissue degeneration
gross toxicity as determined by changes in weight ([1]; M109 tumor mice (FIG. 13), 2 μmol/kg TIW, 2 wks): not accompanied by any observed gross toxicity
weight loss or major organ tissue degeneration ([1]; nu/nu mice with KB tumors (FIG. 6)): apparent absence of weight loss or major organ tissue degeneration
fraction unbound [2]: 0.33
serum binding [2]: 67%
dose at which toxicity begins, as determined by changes in weight [3]: ≥ 2.5 µmol/kg
serum binding in various species [4]: low serum binding
half-life (Human serum stability): ~1200 min

CCCC(=O)OCN(C(=O)[C@@H](NC(=O)[C@H]1CCCCN1C)C(C)CC)[C@H](C[C@@H](OC(C)=O)c1nc(C(=O)N[C@@H](Cc2ccc(O)cc2)C[C@H](C)C(=O)O)cs1)C(C)C (stereo partly drawn) [tubulysin B, reference compound]
toxicity (dosing terminated early in each cohort) ([1]; FIG. 9 and 10, 0.1, 0.2, 0.5 μmol/kg TIW): excessive toxicity
change in percent body weight ([1]; FIG. 10, 0.1, 0.2, 0.5 μmol/kg TIW, compared to controls): dramatic change
complete or partial responses (s.c. tumors): 0/5

Nc1nc2ncc(CNc3ccc(C(=O)N[C@@H](CCC(=O)O)C(=O)O)cc3)nc2c(=O)[nH]1 [folic acid]
relative affinity (folate receptors (FRs)): 1
